Results on seven molecules are retold here after paper doi:10.1101/2022.07.12.499507 (bioRxiv, 2022).

B1: Eaf1 (natural protein)
chain: MSSRPSSAVPNSASLSEDQSSDRSKFPKADDLIDERDRKLTELYCVSRLNQLLELTDENKLRKEIDAFLKKNDIRRGIRFDEASLPKLLHTAATPITKKKLKDVNLINVPNQRLSDSKMSRELPENSENVSVKSESHFVPSHDNSIRENMMDSLRPAEKTGGMWNKRPLESTMGGEEERHEKRQKMQSQSLESSNNSEMASLPISPRPPVPNALAHYTYYENIEYPPADPTEVQPAVKFKDPLIKNIMAKEIDTSDHYNENNVDALETVFLLMNDYIPSKIPQALPLAELKYMSQTLPLINLIPRAHKALTTNIINNALNEARITVVGSRIEELRRLGLWSLRQPKRFIDPWKQHNTHQNILLEEAKWMQADFKEGHKYKVAICTAMAQAIKDYWTYGEICCVKRKTLLPGKENKLSDDGRISEKSGRPSDTSRNDSDISIAGKDDIGIIANVDDITEKESAAANDNDENGKNEAGAKSDFDFADGLLSQEGAHDQIISSIDTKLLLKKPSSSSEVVLIQHEVAASSALIETEESKKELAPPFKLSIFVDELNTFEKTLIQDLPLYNGINEERPKKDDSLPFIPISKSVVSLDDNGFYKLLERQLIDEEPSISQLSKRRGMFYGNRRNHYLRPPAVPSLRYLQNRTPTIWLSEDDQELVKNINTYGYNWELISAHMTHRLTYSYLSNIERRTPWQCFERFVQLNERFNFSDLKGPRAHSAQQWLIEAHKFQQRQNRRISPLGVNTESIQRGHRRLRWASMFEAIRKCMKKRENTPRPNPTQPRKPLDCKNMKVPTPAEMSLLKAQRDEALRRDIQLRRTVKNRLQQRQQQSQQAHSSRAQSPIPSNGKSSSNLARNGQASAPRPNQKQYTEQDIIESYSRKLLEQKPDIGPEMALKAAKNYYRTLREQQQQLKQHQIQQQRQQLQEESSHVQQLQQLQPGSQAPPPKSSPSQSSLSNISNINSAPRIKSPTPQEILQRFQKQ
B2: Epl1 (natural protein)
chain: MPTPSNAIEINDGSHKSGRSTRRSGSRSAHDDGLDSFSKGDSGAGASAGSSNSRFRHRKISVKQHLKIYLPNDLKHLDKDELQQREVVEIETGVEKNEEKEVHLHRILQMGSGHTKHKDYIPTPDASMTWNEYDKFYTGSFQETTSYIKFSATVEDCCGTNYNMDERDETFLNEQVNKGSSDILTEDEFEILCSSFEHAIHERQPFLSMDPESILSFEELKPTLIKSDMADFNLRNQLNHEINSHKTHFITQFDPVSQMNTRPLIQLIEKFGSKIYDYWRERKIEVNGYEIFPQLKFERPGEKEEIDPYVCFRRREVRHPRKTRRIDILNSQRLRALHQELKNAKDLALLVAKRENVSLNWINDELKIFDQRVKIKNLKRSLNISGEDDDLINHKRKRPTIVTVEQREAELRKAELKRAAAAAAAAKAKNNKRNNQLEDKSSRLTKQQQQQLLQQQQQQQQNALKTENGKQLANASSSSTSQPITSHVYVKLPSSKIPDIVLEDVDALLNSKEKNARKFVQEKMEKRKIEDADVFFNLTDDPFNPVFDMSLPKNFSTSNVPFASIASSKFQIDRSFYSSHLPEYLKGISDDIRIYDSNGRSRNKDNYNLDTKRIKKTELYDPFQENLEIHSREYPIKFRKRVGRSNIKYVDRMPNFTTSSTKSACSLMDFVDFDSIEKEQYSREGSNDTDSINVYDSKYDEFVRLYDKWKYDSPQNEYGIKFSDEPARLNQISNDTQVIRFGTMLGTKSYEQLREATIKYRRDYITRLKQKHIQHLQQQQQQQQQQQQQAQQQKQKSQNNNSNSSNSLKKLNDSLINSEAKQNSSITQKNSS
B3: Eaf6 (natural protein)
chain: MTDELKSYEALKAELKKSLQDRREQEDTFDNLQQEIYDKETEYFSHNSNNNHSGHGGAHGSKSHYSGNIIKGFDTFSKSHHSHADSAFNNNDRIFSLSSATYVKQQHGQSQND
B4: Esa1 (enzyme)
chain: MSHDGKEEPGIAKKINSVDDIIIKCQCWVQKNDEERLAEILSINTRKAPPKFYVHYVNYNKRLDEWITTDRINLDKEVLYPKLKATDEDNKKQKKKKATNTSETPQDSLQDGVDGFSRENTDVMDLDNLNVQGIKDENISHEDEIKKLRTSGSMTQNPHEVARVRNLNRIIMGKYEIEPWYFSPYPIELTDEDFIYIDDFTLQYFGSKKQYERYRKKCTLRHPPGNEIYRDDYVSFFEIDGRKQRTWCRNLCLLSKLFLDHKTLYYDVDPFLFYCMTRRDELGHHLVGYFSKEKESADGYNVACILTLPQYQRMGYGKLLIEFSYELSKKENKVGSPEKPLSDLGLLSYRAYWSDTLITLLVEHQKEITIDEISSMTSMTTTDILHTAKTLNILRYYKGQHIIFLNEDILDRYNRLKAKKRRTIDPNRLIWKPPVFTASQLRFAW
B5: Gal4-VP16 fusion protein (other)
chain: MKLLSSIEQACDICRLKKLKCSKEKPKCAKCLKNNWECRYSPKTKRSPLTRAHLTEVESRLERLEQLFLLIFPREDLDMILKMDSLQDIKALLTGLFVQDNVNKDAVTDRLASVETDMPLTLRQHRISATSSSEESSNKGQRQLTVSAPPTDVSLGDELHLDGEDVAMAHADALDDFDLDMLGDGDSPGPGFTPHDSAPYGALDMADFEFEQMFTDALGIDEYGG
B6: Eaf2 (natural protein)
chain: MSSSDIFDVLNIKQKSRSPTNGQVSVPSSSAANRPKPQVTGMQRELFNLLGENQPPVVIKSGNNFKEKMLSTSKPSPWSFVEFKANNSVTLRHWVKGSKELIGDTPKESPYSKFNQHLSIPSFTKEEYEAFMNENEGTQKSVESEKNHNENFTNEKKDESKNSWSFEEIEYLFNLCKKYDLRWFLIFDRYSYNNSRTLEDLKEKFYYTCRNYFKASDPSNPLLSSLNFSAEKEIERKKYLQRLLSRSAAEIAEEEALVVESKKFEMAAKRTLAERESLLRLLDSPHSDQTITQYLTSQGMSQLYNALLADKTRKRKHDLNIPENPWMKQQQQFAQHRQLQQLNVKKSEVKENLSPKKTKRQRQEMQTALKRKSESAYAEQLLKDFNSDERKALGVITHGEKLSPGVYLRSTKLSTFKPALQNKILAILQELSLPSRPVMPSFDVMERQEELLKKINTLIDLKKHVDKYEAGMSITK
B7: Yng2 (natural protein)
chain: MDPSLVLEQTIQDVSNLPSEFRYLLEEIGSNDLKLIEEKKKYEQKESQIHKFIRQQGSIPKHPQEDGLDKEIKESLLKCQSLQREKCVLANTALFLIARHLNKLEKNIALLEEDGVLAPVEEDGDMDSAAEASRESSVVSNSSVKKRRAASSSGSVPPTLKKKKTSRTSKLQNEIDVSSREKSVTPVSPSIEKKIARTKEFKNSRNGKGQNGSPENEEEDKTLYCFCQRVSFGEMVACDGPNCKYEWFHYDCVNLKEPPKGTWYCPECKIEMEKNKLKRKRN

In assay [1] the target is Tra1 (Saccharomyces cerevisiae, UniProt P38811 1-3744). In words: cross-linking.
Sequence of Tra1 (P38811 whole entry): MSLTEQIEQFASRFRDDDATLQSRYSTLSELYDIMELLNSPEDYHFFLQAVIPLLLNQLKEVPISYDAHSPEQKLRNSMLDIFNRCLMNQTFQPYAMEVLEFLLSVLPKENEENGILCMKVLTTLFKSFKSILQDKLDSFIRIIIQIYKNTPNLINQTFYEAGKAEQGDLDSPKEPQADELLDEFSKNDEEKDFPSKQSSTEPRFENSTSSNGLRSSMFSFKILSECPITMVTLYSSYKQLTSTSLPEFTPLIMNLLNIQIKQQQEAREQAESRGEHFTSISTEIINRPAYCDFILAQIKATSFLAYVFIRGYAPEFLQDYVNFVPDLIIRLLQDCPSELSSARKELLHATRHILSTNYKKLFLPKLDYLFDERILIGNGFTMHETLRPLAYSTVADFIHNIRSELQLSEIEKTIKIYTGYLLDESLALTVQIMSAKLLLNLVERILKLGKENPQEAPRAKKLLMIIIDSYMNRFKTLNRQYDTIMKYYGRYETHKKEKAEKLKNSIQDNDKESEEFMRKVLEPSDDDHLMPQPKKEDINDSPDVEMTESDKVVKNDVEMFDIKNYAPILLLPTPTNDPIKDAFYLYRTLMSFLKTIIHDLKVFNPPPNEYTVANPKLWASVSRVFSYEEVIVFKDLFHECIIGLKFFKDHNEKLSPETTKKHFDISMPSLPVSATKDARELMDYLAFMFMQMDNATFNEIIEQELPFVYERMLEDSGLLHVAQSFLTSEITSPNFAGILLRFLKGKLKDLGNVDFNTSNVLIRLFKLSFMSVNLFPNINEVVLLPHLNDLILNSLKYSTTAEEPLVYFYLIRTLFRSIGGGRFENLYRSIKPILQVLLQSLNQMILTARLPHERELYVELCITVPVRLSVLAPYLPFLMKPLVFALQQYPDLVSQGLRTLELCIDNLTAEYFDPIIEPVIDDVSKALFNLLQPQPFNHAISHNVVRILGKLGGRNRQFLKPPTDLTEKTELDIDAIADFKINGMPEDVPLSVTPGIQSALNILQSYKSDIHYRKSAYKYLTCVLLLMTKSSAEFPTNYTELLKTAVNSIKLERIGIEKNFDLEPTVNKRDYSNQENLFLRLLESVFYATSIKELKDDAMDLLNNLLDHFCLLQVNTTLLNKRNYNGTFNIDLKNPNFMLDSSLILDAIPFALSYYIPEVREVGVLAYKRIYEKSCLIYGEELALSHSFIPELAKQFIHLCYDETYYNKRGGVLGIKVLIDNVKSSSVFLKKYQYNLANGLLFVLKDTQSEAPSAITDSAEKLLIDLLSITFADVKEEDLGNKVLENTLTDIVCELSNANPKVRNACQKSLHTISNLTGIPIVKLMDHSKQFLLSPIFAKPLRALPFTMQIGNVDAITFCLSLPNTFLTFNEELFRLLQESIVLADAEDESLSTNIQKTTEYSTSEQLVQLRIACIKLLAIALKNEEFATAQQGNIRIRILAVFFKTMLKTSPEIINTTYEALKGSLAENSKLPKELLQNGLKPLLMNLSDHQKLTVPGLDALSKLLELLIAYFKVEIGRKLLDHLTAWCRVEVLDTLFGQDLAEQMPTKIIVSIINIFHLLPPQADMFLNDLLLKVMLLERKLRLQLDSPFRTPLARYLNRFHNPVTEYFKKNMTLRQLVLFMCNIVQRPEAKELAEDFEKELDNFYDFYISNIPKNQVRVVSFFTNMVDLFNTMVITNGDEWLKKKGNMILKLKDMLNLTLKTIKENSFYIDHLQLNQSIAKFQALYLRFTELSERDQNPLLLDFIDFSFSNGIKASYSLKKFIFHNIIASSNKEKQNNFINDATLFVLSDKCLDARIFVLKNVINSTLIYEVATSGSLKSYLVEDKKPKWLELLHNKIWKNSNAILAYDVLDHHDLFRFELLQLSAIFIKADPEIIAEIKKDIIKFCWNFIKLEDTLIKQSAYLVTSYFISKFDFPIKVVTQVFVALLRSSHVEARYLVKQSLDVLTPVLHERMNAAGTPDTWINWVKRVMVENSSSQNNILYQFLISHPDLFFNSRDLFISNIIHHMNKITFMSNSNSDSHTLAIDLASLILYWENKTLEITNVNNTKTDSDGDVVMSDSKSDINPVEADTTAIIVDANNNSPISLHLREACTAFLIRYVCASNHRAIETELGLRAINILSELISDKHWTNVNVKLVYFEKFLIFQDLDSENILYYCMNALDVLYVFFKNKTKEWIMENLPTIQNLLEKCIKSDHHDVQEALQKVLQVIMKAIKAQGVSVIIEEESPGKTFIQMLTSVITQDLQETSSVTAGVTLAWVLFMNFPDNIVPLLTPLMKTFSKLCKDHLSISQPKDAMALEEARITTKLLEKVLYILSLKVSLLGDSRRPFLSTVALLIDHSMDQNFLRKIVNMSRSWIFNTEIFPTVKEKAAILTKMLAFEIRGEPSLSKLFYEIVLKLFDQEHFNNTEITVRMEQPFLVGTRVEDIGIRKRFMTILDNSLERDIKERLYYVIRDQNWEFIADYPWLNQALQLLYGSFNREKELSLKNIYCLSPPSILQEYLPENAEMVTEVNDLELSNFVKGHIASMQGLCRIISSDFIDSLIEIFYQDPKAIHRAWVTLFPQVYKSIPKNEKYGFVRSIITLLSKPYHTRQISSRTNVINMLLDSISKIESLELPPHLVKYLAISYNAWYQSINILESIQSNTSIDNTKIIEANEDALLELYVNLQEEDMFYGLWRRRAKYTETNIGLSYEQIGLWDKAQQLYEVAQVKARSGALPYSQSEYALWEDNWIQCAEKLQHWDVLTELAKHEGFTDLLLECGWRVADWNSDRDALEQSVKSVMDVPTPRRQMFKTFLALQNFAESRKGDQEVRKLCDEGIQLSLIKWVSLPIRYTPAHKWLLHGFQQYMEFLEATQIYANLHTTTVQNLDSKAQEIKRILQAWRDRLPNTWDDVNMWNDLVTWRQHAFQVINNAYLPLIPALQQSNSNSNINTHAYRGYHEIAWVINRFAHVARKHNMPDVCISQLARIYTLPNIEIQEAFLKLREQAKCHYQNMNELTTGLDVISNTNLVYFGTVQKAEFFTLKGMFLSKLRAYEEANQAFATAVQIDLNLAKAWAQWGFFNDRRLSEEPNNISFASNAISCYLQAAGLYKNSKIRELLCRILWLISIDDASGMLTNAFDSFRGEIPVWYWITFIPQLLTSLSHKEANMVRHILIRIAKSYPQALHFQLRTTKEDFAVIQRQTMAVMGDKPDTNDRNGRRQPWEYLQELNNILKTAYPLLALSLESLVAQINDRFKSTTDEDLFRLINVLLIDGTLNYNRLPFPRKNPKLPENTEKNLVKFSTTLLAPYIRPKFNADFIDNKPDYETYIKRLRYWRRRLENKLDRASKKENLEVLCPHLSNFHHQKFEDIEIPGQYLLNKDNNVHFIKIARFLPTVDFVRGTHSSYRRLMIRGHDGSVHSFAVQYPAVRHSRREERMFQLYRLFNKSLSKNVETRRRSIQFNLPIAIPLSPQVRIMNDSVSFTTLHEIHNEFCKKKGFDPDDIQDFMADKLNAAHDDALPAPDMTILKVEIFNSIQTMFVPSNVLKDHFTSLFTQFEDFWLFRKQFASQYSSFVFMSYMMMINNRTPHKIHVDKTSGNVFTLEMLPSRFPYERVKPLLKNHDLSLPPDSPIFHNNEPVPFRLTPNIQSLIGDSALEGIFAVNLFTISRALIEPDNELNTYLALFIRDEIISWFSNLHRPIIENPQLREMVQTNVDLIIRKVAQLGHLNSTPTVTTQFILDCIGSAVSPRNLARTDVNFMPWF
Assay [2] concerns the target B1. In words: cryo-EM structure.
Assay [3] deals with B7. Nature of the assay: cryo-EM structure.
The target of assay [4] is B2. Nature of the assay: cryo-EM structure.

Take B1: in assay [1], the binding result is recorded as “binds”. For the molecule B2, the binding result in assay [2] is “binds”. In the case of B3, the binding result in assay [3] and in assay [4] was “binds” in each case. Consider B4, for which the binding result in assay [4] is recorded as “binds”. Regarding B5, the binding result in assay [1] was “binds”. Regarding B6, in assay [2], the binding result is given as “binds”. Regarding B7, the binding result in assay [4] was “binds”.
